Values of other authors as cited in PMC2726996.

Key:
[1] = biological target: EGFR (high-affinity sites) (Homo sapiens) (UniProt P00533)
[2] = biological target: EGFR (low-affinity sites) (Homo sapiens) (UniProt P00533)

- Kd [1]: < 0.1 nM
- Kd [2]: 10 nM
Substance: EGF (from UniProt P01133)
